Here are results for one molecule from paper PMC11998537, “Restriction of influenza A virus replication by host DCAF7-CRL4B axis” (Journal of Virology, 2025).

One assay has as its target T1, His-PB1 (influenza A/Puerto Rico/8/1934 (PR8, …, UniProt P03431 1-757)).
T1 construct: source: E. coli BL21, purified
Nature of the assay: pull-down. The settings on record: both partners purified.

A further assay deals with T2, His-PB2 (influenza A/Puerto Rico/8/1934 (PR8, …, UniProt P03428 1-759)).
T2 construct: source: E. coli BL21, purified
Nature of the assay: pull-down. The settings on record: both partners purified.

B1: GST-DCAF7 (natural protein, human, UniProt P61962 1-342, looked up)
chain: MSLHGKRKEIYKYEAPWTVYAMNWSVRPDKRFRLALGSFVEEYNNKVQLVGLDEESSEFICRNTFDHPYPTTKLMWIPDTKGVYPDLLATSGDYLRVWRVGETETRLECLLNNNKNSDFCAPLTSFDWNEVDPYLLGTSSIDTTCTIWGLETGQVLGRVNLVSGHVKTQLIAHDKEVYDIAFSRAGGGRDMFASVGADGSVRMFDLRHLEHSTIIYEDPQHHPLLRLCWNKQDPNYLATMAMDGMEVVILDVRVPCTPVARLNNHRACVNGIAWAPHSSCHICTAADDHQALIWDIQQMPRAIEDPILAYTAEGEINNVQWASTQPDWIAICYNNCLEILRV
notes: source: E. coli BL21, purified
As to B1, the binding result with His-PB1 and with His-PB2 was “binds” throughout.
